Assay results as given in the supplement of paper PMC10126150.
± gives the standard deviation of the averaged measurements.

Tested on: ATP
Experiment: switch fluorescence ratio, 500 uM ATP over buffer (Cy3 cluster intensity, sum of 5 cycles each) (fold (ratio)); higher = stronger signal-on switching upon ATP binding; sequences stand for … in TCGTCGGCAGCGTCAGATGTGTATAAGAGACAGTTTTTTTTTTTTTTTTTTTTTTTTT…TC
Conditions: aptamer strand: ATP DNA aptamer (quencher-CACCTGGGGGAGTATTGCGGAGGAAGG + anchor), 100 nM annealed; ATP concentration: 500 uM
Method in brief: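 Exposure to 500 uM ATP lasted 15 min at 22 °C before imaging, and a selection-buffer image was taken beforehand, for Cy3-labelled switching-strand clusters on a modified Illumina MiSeq flow-cell annealed to 100 nM quencher-labelled ATP aptamer. Five buffer/ATP cycles were run with NaOH stripping and re-annealing between them. The fluorescence ratio per cluster is summed target-cycle over summed buffer-cycle Cy3 intensity, averaged per switch-domain sequence. Clusters outside 100-1000 RFU were excluded.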

Sequence | switch fluorescence ratio
CCACTAGGGC | 1.09 ± 0.017
CCACTGGGTG | 4.394 ± 0.031
CCAGAACGAA | 1.037 ± 0.0099
CCAGAATTCG | 0.98 ± 0.024
CCAGACGCGG | 1.14 ± 0.051
CCAGAGGCTA | 1.1475 ± 0.00019
CCAGCGGTTG | 1.025 ± 0.004
CCAGCTGCGG | 1.01 ± 0.022
CCAGCTGGGT | 1.0117 ± 0.0005
CCAGCTGGT | 1.02 ± 0.042
CCAGCTTTTA | 1.09 ± 0.052
CCAGGCAAGG | 1.18 ± 0.019
CCAGGCGATG | 1.05 ± 0.005
CCAGGCGCTA | 1.611 ± 0.014
CCAGGCGTAT | 1.032 ± 0.0023
CCAGGGCGGG | 0.99 ± 0.043
CCAGGGGAAG | 0.996 ± 0.017
CCAGGGGGAT | 1.97 ± 1.3
CCAGGGTATC | 1.064 ± 0.0063
CCAGGGTTGT | 1.11 ± 0.037
CCAGGTAACA | 1.03 ± 0.012
CCAGGTATTT | 1.1 ± 0.016
CCAGGTCGAC | 1.02 ± 0.063

Sequence | switch fluorescence ratio
CCAGGTGTTG | 3.12 ± 0.44
CCAGTAGGAG | 1.07 ± 0.051
CCAGTAGTCT | 1.05 ± 0.019
CCAGTTAAGA | 0.989 ± 0.024
CCAGTTCGGA | 0.981 ± 0.059
CCAGTTGGGA | 1 ± 0.032
CCATACGTAG | 1.035 ± 0.0066
CCATCAAATA | 1.01 ± 0.015
CCATGAACAT | 1 ± 0.028
CCATGCCACA | 1.05 ± 0.029
CCATGGAGGT | 1.01 ± 0.034
CCATGGGAAA | 0.961 ± 0.03
CCATGGGGGG | 1.11 ± 0.18
CCATGTTTGG | 0.996 ± 0.028
CCATTAATTT | 1.11 ± 0.17
CCATTACGTT | 1.04 ± 0.05
CCATTATAT | 0.982 ± 0.043
CCATTGAGAC | 1.04 ± 0.029
CCATTTGCGG | 1.001 ± 0.0088
CCATTTTGTT | 0.984 ± 0.015
CCATTTTTTA | 0.9825 ± 0.0097
CCCATGCTTA | 1.046 ± 0.003
CCCATGGACT | 1.034 ± 0.0088

Sequence | switch fluorescence ratio
CCCCAAGACG | 0.997 ± 0.011
CCCCATTTTA | 1 ± 0.018
CCCCCCGGGG | 1.61 ± 0.32
CCCCTGACAA | 1.79 ± 0.059
CCCCTGTACT | 1.227 ± 0.0074
CCCGAGGGGT | 1.019 ± 0.0065
CCCGAGTGGG | 0.992 ± 0.054
CCCGCATGAT | 5.66 ± 0.2
CCCGCGGTTA | 1.23 ± 0.032
CCCGGAGGCC | 0.961 ± 0.034
CCCGGCATCT | 1.2197 ± 0.00016
CCCGGGAATC | 1.06 ± 0.059
CCCGGGATAT | 1.06 ± 0.056
CCCGTGCCAG | 1.02 ± 0.025
CCCGTTTTTG | 0.986 ± 0.014
CCCTGTCGGC | 0.997 ± 0.037
CCCTGTGAAA | 0.975 ± 0.028
CCCTTGGGGG | 1.01 ± 0.014
CCCTTGTGTG | 1.43 ± 0.051
CCGAAAATAG | 3.58 ± 0.48
CCGAACTATG | 1.135 ± 0.0027
CCGAACTGGT | 1.1 ± 0.05
CCGAATGAGG | 0.995 ± 0.032

Sequence | switch fluorescence ratio
CCGAGACCGC | 2.71 ± 0.2
CCGAGAGGGG | 0.999 ± 0.041
CCGAGATTGC | 1.95 ± 0.14
CCGAGGGAGA | 1.25 ± 0.024
CCGAGGGCGC | 1.2 ± 0.031
CCGAGGGGGA | 1.26 ± 0.17
CCGAGGGTTA | 1.34 ± 0.12
CCGAGGTTTT | 1.33 ± 0.22
CCGAGTGCAG | 2.24 ± 0.33
CCGATACGGT | 1.08 ± 0.034
CCGATAGCGT | 2.81 ± 0.45
CCGATTAATA | 1.34 ± 0.028
CCGATTGGTA | 1.027 ± 0.0057
CCGCAGCGGA | 2.12 ± 0.27
CCGCAGGGGT | 3.1 ± 2.8
CCGCCACCTG | 1.56 ± 0.059
CCGCGGGGGG | 1.08 ± 0.088
CCGCGGGTTG | 1.05 ± 0.02
CCGCGGTCGT | 1.3 ± 0.085
CCGCTATTGT | 2.77 ± 0.4
CCGGAACGGT | 0.986 ± 0.031
CCGGACGGAA | 1.12 ± 0.071
CCGGAGAGTT | 1.58 ± 0.11

Sequence | switch fluorescence ratio
CCGGAGGAGA | 1.06 ± 0.017
CCGGATGTTG | 0.987 ± 0.028
CCGGCTTAGA | 1.14 ± 0.2
CCGGGAGCCG | 1.023 ± 0.0053
CCGGGATCAG | 1.09 ± 0.035
CCGGGATTTT | 1.09 ± 0.13
CCGGGCAGAG | 1.96 ± 0.071
CCGGGCCATC | 2.3 ± 0.038
CCGGGCGAGC | 1.08 ± 0.059
CCGGGCGTCG | 1.26 ± 0.31
CCGGGCTTAG | 1.28 ± 0.047
CCGGGGGAAG | 1.04 ± 0.035
CCGGGGGATT | 1.4 ± 0.49
CCGGGGGCAG | 1.105 ± 0.0064
CCGGGGGCCT | 1.08 ± 0.032
CCGGGGGCGG | 1.01 ± 0.015
CCGGGGGCTC | 1.87 ± 0.97
CCGGGGGCTT | 1.22 ± 0.019
CCGGGGGGCT | 1.09 ± 0.043
CCGGGGGTGC | 1.24 ± 0.27
CCGGGGTAGG | 1.04 ± 0.024
CCGGGGTCCG | 1.13 ± 0.041
CCGGGGTCGC | 1 ± 0.026

Sequence | switch fluorescence ratio
CCGGGGTTAT | 1.119 ± 0.0047
CCGGGGTTGG | 1 ± 0.012
CCGGGGTTGT | 1.16 ± 0.22
CCGGGTCAGC | 1.21 ± 0.026
CCGGGTGAAG | 1.07 ± 0.063
CCGGGTGGTT | 1.02 ± 0.08
CCGGGTTCGC | 0.998 ± 0.083
CCGGTACTTT | 1.05 ± 0.016
CCGGTATTGT | 1.03 ± 0.037
CCGGTCTAGC | 1.14 ± 0.041
CCGGTGGATT | 1.21 ± 0.3
CCGGTGTGAG | 1.04 ± 0.021
CCGGTTAAGG | 1 ± 0.05
CCGGTTACGT | 1.17 ± 0.2
CCGGTTAGG | 0.998 ± 0.045
CCGGTTATAA | 1.278 ± 0.009
CCGGTTTGTC | 1.02 ± 0.044
CCGTAGAGTT | 1.29 ± 0.031
CCGTAGTGGT | 2.9 ± 1.4
CCGTATAAGG | 1.023 ± 0.0038
CCGTATGGAG | 0.9959 ± 0.002
CCGTCGGTCG | 1 ± 0.023
CCGTCTAATA | 1.42 ± 0.49

Sequence | switch fluorescence ratio
CCGTGCGAAA | 2.99 ± 0.59
CCGTGGGTGT | 1.26 ± 0.15
CCGTGGTTTA | 1 ± 0.01
CCGTTAGAGG | 1.01 ± 0.038
CCGTTAGGCG | 0.987 ± 0.029
CCGTTAGTGG | 1.04 ± 0.042
CCGTTATGCA | 1.26 ± 0.018
CCGTTCAGAA | 1.08 ± 0.019
CCGTTTCGGT | 0.976 ± 0.014
CCGTTTGTTT | 1.005 ± 0.005
CCGTTTTAGT | 1.02 ± 0.039
CCTAATGGGC | 1.014 ± 0.0092
CCTACTTCCA | 1.103 ± 0.0013
CCTAGCGCGC | 1.09 ± 0.043
CCTAGGCCCG | 1.03 ± 0.053
CCTAGGGGGT | 1.02 ± 0.029
CCTAGGGTGT | 2.12 ± 0.32
CCTAGGGTTT | 1 ± 0.038
CCTATACGGG | 1.03 ± 0.049
